PMC6775958 (Pharmacology Research & Perspectives, 2019)
“And” between values parts separate entries of the source, which are not always exact repeats. Equal values may be shown once. Read-outs that look alike come from different tables or passages of the source.

Assays:
[1] = Pharmacokinetics of RHI in anesthetized swine; format: in vivo; details: 20 IU RHI, mean ± SEM; for Cmax (peak serum concentration), Non-transformed / Tmax (time to peak serum concentration): non-compartmental
Euglycemic glucose clamp = format: in vivo, swine; details: 20 IU RHI
[2] = conscious dogs, cited from earlier work; for Bioavailability: pilot experiments
[3] = Subcutaneous, natural logarithmic scale, n = 9

Row | Substance | Cmax (peak serum concentration), Non-transformed ([1]; Intrajejunal wall (ODP), n = 8) [nM] | Tmax (time to peak serum concentration) ([1]; Intrajejunal wall (ODP), n = 8) | Area under the insulin concentration curve ([1]; ODP (jejunal wall), n = 8 (abstract)) [nmol/L/min] | Area under the insulin concentration curve ([1]; Subcutaneous, n = 9 (abstract)) [nmol/L/min] | AUClast, Log-transformed [1, 3] [pmol/L·min] | Cmax, Log-transformed [1, 3] [pmol/L] | Cmax (peak serum concentration), Non-transformed ([1]; Subcutaneous, n = 9) [nM] | Tmax (time to peak serum concentration) ([1]; Subcutaneous, n = 9) | Biological activity of RHI delivered by the ODP (increased demand for glucose delivery to maintain the euglycemic clamp) (Euglycemic glucose clamp; ODP (jejunal wall), anesthetized swine) | Mean AUClast of glucose infusion rates (Euglycemic glucose clamp; Subcutaneous, euglycemic clamp, swine, 0-420 min, mean ± SEM, n = 9) [g/min^2] | Cmax after oral than after subcutaneous administration ([2]; oral ODP vs subcutaneous) | Tmax after oral than after subcutaneous administration ([2]; oral ODP vs subcutaneous) | Bioavailability ([2]; oral delivery by the ODP) [%] | Bioavailability ([2]; subcutaneous injections) [%]
1 | recombinant human insulin [RHI] | 0.517 ± 0.109 | 2.32 ± 0.65 h and 2.32 ± 0.7 h | 83 ± 18 | 81 ± 10 | 2178 ± 49 | 5.74 ± 0.17 | 0.342 ± 0.05 | 4 ± 0.517 h and 3.78 ± 0.4 h | confirmed | 106 ± 10 |  |  |  | 
2 | human immunoglobulin G [human IgG] |  |  |  |  |  |  |  |  |  |  | higher | shorter | 60 | 50
